Assays:
[1] = target: T1, CD55 purified from human erythrocytes (human, UniProt P08174 35-353); test: ELISA with phage and soluble scFv on coated purified antigen
T1 construct: mature; Native protein purified from red cells; coated on plates for ELISA, or incubated with antibody-sensitised sheep erythrocytes (EA-CD55) for the hemolytic assay; also called decay-accelerating factor; DAF
T1 sequence (looked up): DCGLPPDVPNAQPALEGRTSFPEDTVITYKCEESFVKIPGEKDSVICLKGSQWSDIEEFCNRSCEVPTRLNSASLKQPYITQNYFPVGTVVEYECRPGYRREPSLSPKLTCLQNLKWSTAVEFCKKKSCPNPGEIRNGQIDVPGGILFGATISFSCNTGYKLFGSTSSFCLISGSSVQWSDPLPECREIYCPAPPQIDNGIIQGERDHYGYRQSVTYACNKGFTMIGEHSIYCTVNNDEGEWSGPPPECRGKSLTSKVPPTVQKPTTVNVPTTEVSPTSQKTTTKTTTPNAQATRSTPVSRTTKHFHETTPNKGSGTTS
Protocol: (§1) Microtiter plates were coated with 100 μl of the various CRPs (10 μg/ml) followed by 100 μl of phage suspension in MPBS. Anti-M13 peroxidase conjugated mAb was used as a secondary antibody. Data represent mean values±SD of three different experiments.
(§2) The specificity of the selected clones was assessed by ELISA using both phage and soluble scFv (FIG. 1).

[2] = target: T2, CD59 purified from human erythrocytes (human, UniProt P13987 26-102); test: as above
T2 construct: mature; Native protein purified from red cells; coated on plates for ELISA, or incubated with guinea pig erythrocytes (GPE-CD59) for the reactive lysis test
T2 sequence (looked up): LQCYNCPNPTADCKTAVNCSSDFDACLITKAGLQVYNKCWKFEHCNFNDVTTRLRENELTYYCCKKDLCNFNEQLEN
Protocol: as §1, §2

binding result [1] | binding result [2] | Binder
no binding |  | scFv TS-59 (anti-CD59 clone) (scFv, also called Clone anti CD 59; anti-CD59 scFv) scFv: DIVLTQSPDSLAVSLGERATINCKSSQSVLYSSNNKNYLAWYQQKPGQPPKLLIYWASTRESGVPDRFSGSGSGTDFTPAISSLQAEDVAVYYCQQYYSTPQLTFGGGTKVDIKSGGSTITSYNVYYTKLSSSGTQVQLQQSGGGVVQPGRSLGLSCAASGFTFSSYGMNWVRQAPGKGLEWVSYISSSSSTIYYADSVKGRFTISRDNSKNTLYLQMNSLRAEDTAVYYCARGPGMDVWGQGTTVTVS
 | no binding | scFv TS-55 (anti-CD55 clone) (scFv, also called Clone anti CD 55; anti-CD55 scFv) scFv: SSELTQEPAVSVALGQTVSITCQGDSLRSYYASWYQQKPGQAPIPVIYGKNNRPSGIPDRFSGSSSGNTASLTITGAQAEDEADYYCSSRDNRGTHRWVFGGGTKLTVLSGGSTITSYNVYYTKLSSSGTQVNLRESGGGLVQPGRSLRLSCAASGFTFDDYAMHWVRQAPGKGLEWVSGISWNSGSIGYADSVKGRFTISRDNAKNSLYLQMNSLRAEDTALYYCAKDRSDRGRLLDYWGLGTLVTVS

From patent publication US20090053225A1 (QUARK PHARMACEUTICALS, published 2009)
